Article doi:10.1101/2025.01.15.633177 (bioRxiv, 2025)
Blank lines part the entries; values can stand above or below the binder they belong to.

Tests used:
Aurora-A kinase domain = target: T1, Aurora-A kinase domain (UniProt O14965 122-403, C290A;K339C;C393A); assay: EMSA
T1 sequence: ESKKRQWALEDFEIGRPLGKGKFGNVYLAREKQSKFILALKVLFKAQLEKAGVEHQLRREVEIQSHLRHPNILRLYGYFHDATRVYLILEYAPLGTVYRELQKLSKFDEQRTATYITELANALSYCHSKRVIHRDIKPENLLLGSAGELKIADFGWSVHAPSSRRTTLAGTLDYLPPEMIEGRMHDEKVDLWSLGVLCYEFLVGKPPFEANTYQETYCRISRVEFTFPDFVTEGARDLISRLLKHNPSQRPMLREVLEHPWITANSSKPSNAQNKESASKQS

[1] = target: T2, Aurora-A 1-403, unphosphorylated (UniProt O14965 1-403); assay: pull-down
T2 sequence: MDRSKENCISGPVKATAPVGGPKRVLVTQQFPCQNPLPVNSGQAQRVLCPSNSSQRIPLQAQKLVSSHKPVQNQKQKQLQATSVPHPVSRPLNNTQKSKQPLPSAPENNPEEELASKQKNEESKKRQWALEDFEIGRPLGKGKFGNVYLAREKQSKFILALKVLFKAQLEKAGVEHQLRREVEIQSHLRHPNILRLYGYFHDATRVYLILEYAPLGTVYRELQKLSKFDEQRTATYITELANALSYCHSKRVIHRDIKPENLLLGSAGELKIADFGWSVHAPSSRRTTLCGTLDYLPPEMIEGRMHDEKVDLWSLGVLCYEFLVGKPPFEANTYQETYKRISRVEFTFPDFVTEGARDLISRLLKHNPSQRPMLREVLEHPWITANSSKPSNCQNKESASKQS

[2] = target: T3, unphosphorylated Aurora-A 1-403 (UniProt O14965 1-403); assay: pull-down
T3 sequence: T2 sequence

B1: UGhigh RNA, Cy5 (ssRNA)
RNA: UGCUGGGAUGGUCAUGGUGGGUGACCCUGGGAUGGCCGCGGUGGGUGACCCUGGAAUGGU
- binding result (Aurora-A kinase domain): binds

B2: UGhigh RNA, biotin (ssRNA)
RNA: B1 RNA
- binding result [1]: binds

- binding result [2]: binds
B3: 3xFLAG-MYCN 1-137 (domain or fragment)
chain: MPSCSTSTMPGMICKNPDLEFDSLQPCFYPDEDDFYFGGPDSTPPGEDIWKKFELLPTPPLSPSRGFAEHSSEPPSWVTEMLLENELWGSPAEEDAFGLGGLGGLTPNPVILQDCMWSGFSAREKLERAVSEKLQHG
